The results in this text go back to the RNAGym collection of RNA variant scans (doi:10.7554/elife.80360).

To fix the notation:
B1: Hammerhead Ribozyme (parent)
chain: ACCGGAUGUGCUUUCCGGUCUGAUGAGUCCGUGAGGACGAAACAG

In this data set the parent is B1. In words: self-cleavage, relative activity (ratio to wild type); higher = more cleavage; co-transcriptional.
U13G U19G: the self-cleavage turned out to be 0.314. As for U13G U19C, the figure is 0.767.

On to U14C G35U, for which the self-cleavage was determined as 0.761. As for U14C G35C, the self-cleavage turned out to be 0.499. Then U14C G35A, with 0.565.

On to U14A A44C, for which the self-cleavage amounted to 0.414. In the case of U14A A44G, the self-cleavage was 1.06.

For U14A A44U, the self-cleavage is 0.417. As for U14G A34U, the figure is 0.782.

Turning to U14G A34C, the self-cleavage was determined as 0.875. Then U14G A34G, with 0.652; and U13G G25A, with 0.367. As for U13G G25U, the figure is 0.303; as for U13G G25C, 0.315. Then U14A A40U, with 0.237. For the variant U14A A40C, the self-cleavage is 0.491.

In the case of U14A A40G, the self-cleavage is 0.296.

U14A C16A: the self-cleavage worked out at 0.592. In the case of U14A C16U, the self-cleavage is 0.798. Then U14A C16G, with 0.403; and U13G G22U, with 0.306; and U13G G22A, with 0.383. Then U13G G22C, with 0.315; and U14C A34C, with 0.791; and U14C A34G, with 0.682. As for U14C A34U, the figure is 0.67; as for U14A C20G, 0.346; as for U14A C20U, 0.398. U14A C20A: the self-cleavage was 0.44. Take U14G: the self-cleavage is 0.77. For U14A, the self-cleavage amounted to 0.954. Then U14C, with 0.932. Then U14A A23C, with 0.345; and U14A A23G, with 0.351; and U14A A23U, with 0.272.

U14C G25C: the self-cleavage was found to be 0.228. Then U14C G25A, with 0.305. As for U14C G25U, the figure is 0.32.

Take U14G U28C: the self-cleavage turned out to be 0.602. With U14G U28A, the self-cleavage stood at 0.796. Then U14G U28G, with 0.585. As for U13G G39C, the figure is 0.396; as for U13G G39A, 0.332. Then U13G G39U, with 0.299; and U14C A40C, with 0.277. As for U14C A40U, the self-cleavage was found to be 0.354.

As to U14C A40G, the self-cleavage turned out to be 0.273. Then U14A A42U, with 0.272; and U14A A42G, with 0.279; and U14A A42C, with 0.296.

Consider U14C C15G, for which the self-cleavage stood at 0.794.

For U14C C15U, the self-cleavage stood at 0.996. Then U14C C15A, with 0.72.

Consider U14C G27C, for which the self-cleavage turned out to be 0.54. Then U14C G27U, with 0.331; and U14C G27A, with 0.602. As for U14C G39C, the figure is 0.337.

U14C G39A: the self-cleavage was 0.349. Then U14C G39U, with 0.294; and U14G C38U, with 0.796. Turning to U14G C38A, the self-cleavage was determined as 0.435.

Regarding U14G C38G, the self-cleavage came out at 0.603. Then U14G A42G, with 0.381; and U14G A42C, with 0.382. Then U14G A42U, with 0.268; and U14G A37C, with 0.777.

On to U14G A37U, for which the self-cleavage stood at 0.566. Then U14G A37G, with 0.782; and U14G G25U, with 0.28. Then U14G G25A, with 0.315; and U14G G25C, with 0.315; and U13G U21G, with 0.537.

In the case of U13G U21C, the self-cleavage stood at 0.579. Then U13G U21A, with 0.507; and U14A C15U, with 0.994; and U14A C15A, with 1.09. On to U14A C15G, for which the self-cleavage amounted to 0.722. As for U14G A40C, the self-cleavage is 0.52. Then U14G A40G, with 0.366.

For U14G A40U, the self-cleavage was found to be 0.356. Then U14A G36U, with 0.528. Then U14A G36A, with 0.485.

As for U14A G36C, the self-cleavage amounted to 0.319. Then U14G A41C, with 0.34.

U14G A41G: the self-cleavage turned out to be 0.3. As for U14G A41U, the figure is 0.367; as for U14A G22C, 0.327. As for U14A G22U, the figure is 0.331; as for U14A G22A, 0.36; as for U14A A34U, 0.903. Then U14A A34C, with 1.05. Take U14A A34G: the self-cleavage was found to be 0.73. Then U14G C30U, with 0.552; and U14G C30A, with 0.924; and U14G C30G, with 0.721. Then U14A G45U, with 0.715; and U14A G45C, with 0.636.

Regarding U14A G45A, the self-cleavage was 0.765. U14G G31C: the self-cleavage was 0.967.

U14G G31U: the self-cleavage came out at 0.51. Regarding U14G G31A, the self-cleavage came out at 0.929. Take U14G C16U: the self-cleavage was 0.849. Then U14G C16A, with 0.642; and U14G C16G, with 0.476; and U13G G35U, with 0.873. Then U13G G35C, with 0.819. As for U13G G35A, the figure is 0.916; as for U14A G39C, 0.276. Turning to U14A G39U, the self-cleavage was 0.315. As for U14A G39A, the self-cleavage stood at 0.359. As for U14G G39U, the figure is 0.359; as for U14G G39A, 0.305; as for U14G G39C, 0.41. In the case of U13G G17U, the self-cleavage was 0.78. As for U13G G17C, the figure is 0.572; as for U13G G17A, 0.876; as for U14A U24A, 0.627. As for U14A U24G, the figure is 1.12; as for U14A U24C, 1.2; as for U13G G31C, 0.943.

As for U13G G31A, the self-cleavage came to 1.1. Then U13G G31U, with 0.82; and U14C A42U, with 0.423; and U14C A42G, with 0.249.

Consider U14C A42C, for which the self-cleavage was 0.33. As for U14A G17U, the figure is 0.564; as for U14A G17A, 0.586; as for U14A G17C, 0.375. Then U14C G36C, with 0.31; and U14C G36U, with 0.455. For U14C G36A, the self-cleavage is 0.552. As for U13G G36C, the figure is 0.709; as for U13G G36A, 0.628. U13G G36U: the self-cleavage stood at 0.658.

With U14G A44G, the self-cleavage stood at 1.32. As for U14G A44C, the figure is 0.681; as for U14G A44U, 0.609; as for U14C C43G, 0.309. Then U14C C43A, with 0.279; and U14C C43U, with 0.337.

In the case of U14C G22C, the self-cleavage worked out at 0.294.

As for U14C G22A, the self-cleavage was 0.32. Take U14C G22U: the self-cleavage worked out at 0.33.

With U14C A37G, the self-cleavage came to 0.945. As for U14C A37C, the self-cleavage is 0.436. Then U14C A37U, with 0.624; and U14A A41G, with 0.28. Consider U14A A41U, for which the self-cleavage was determined as 0.296.

As to U14A A41C, the self-cleavage came to 0.302. For U14C A44C, the self-cleavage was 0.489. As for U14C A44G, the figure is 1.24; as for U14C A44U, 0.393; as for U14G U32A, 0.811. As for U14G U32C, the figure is 0.653; as for U14G U32G, 1.01; as for U13G G33C, 1.06. Then U13G G33U, with 0.801; and U13G G33A, with 0.959. Regarding U14A U32C, the self-cleavage is 0.946.

U14A U32A: the self-cleavage stood at 1.38. Then U14A U32G, with 0.989; and U14C C38U, with 1.15; and U14C C38A, with 0.532. Then U14C C38G, with 0.489; and U14G U24G, with 0.575.

Consider U14G U24C, for which the self-cleavage is 0.611. Then U14G U24A, with 1.03.
